Experimental findings from patent US20190248902A1 (published 2019) are described below.

One experiment deals with T1, Pig ASGR-1 (pig).
T1 construct: Expressed on HEK 293 cells or as membrane prep on beads; cDNA GenBank NM_001244458
T1 chain: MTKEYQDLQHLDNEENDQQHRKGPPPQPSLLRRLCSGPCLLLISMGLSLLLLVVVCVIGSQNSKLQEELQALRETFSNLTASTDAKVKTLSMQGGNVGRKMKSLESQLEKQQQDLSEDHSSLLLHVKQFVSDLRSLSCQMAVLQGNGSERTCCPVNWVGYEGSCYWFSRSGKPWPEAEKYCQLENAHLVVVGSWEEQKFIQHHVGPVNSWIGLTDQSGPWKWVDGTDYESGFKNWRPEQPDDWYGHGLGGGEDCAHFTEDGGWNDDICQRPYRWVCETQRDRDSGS
The experiment in a line: FACS on transfected HEK 293 cells or membrane preps on beads; binding = signal at least 2x irrelevant IgG. Summed up:
(§1)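 Antibodies at normalized concentrations bound 1 h at 4° C to HEK 293 cells expressing each antigen, then Alexa Fluor 647 anti-Fc plus 7-AAD 15 min at 4° C, flow cytometry; empty-vector cells as negative. Alternatively, species ASGR-1 membrane preps on streptavidin beads, antibody 1 h RT, Alexa Fluor 488 anti-Fc; FACS buffer with 1 mM CaCl2 throughout.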

The target in a further experiment is T2, Dog ASGR-1 (dog).
T2 construct: Expressed on HEK 293 cells or as membrane prep on beads; cDNA GenBank XM_546579
T2 chain: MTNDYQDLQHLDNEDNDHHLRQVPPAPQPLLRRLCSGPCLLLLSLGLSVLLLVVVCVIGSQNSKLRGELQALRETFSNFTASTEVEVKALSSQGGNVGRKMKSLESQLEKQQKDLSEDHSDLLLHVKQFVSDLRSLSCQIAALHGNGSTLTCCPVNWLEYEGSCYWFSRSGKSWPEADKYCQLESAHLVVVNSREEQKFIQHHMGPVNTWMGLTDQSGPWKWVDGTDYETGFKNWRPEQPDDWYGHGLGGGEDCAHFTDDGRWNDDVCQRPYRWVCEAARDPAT
The experiment is described as above. An outline of the steps: as §1

The target in a further experiment is T3, Rat ASGR-1 (rat, UniProt P02706 1-284).
T3 construct: Expressed on HEK 293 cells or as membrane prep on beads; cDNA GenBank NM_012503
T3 sequence: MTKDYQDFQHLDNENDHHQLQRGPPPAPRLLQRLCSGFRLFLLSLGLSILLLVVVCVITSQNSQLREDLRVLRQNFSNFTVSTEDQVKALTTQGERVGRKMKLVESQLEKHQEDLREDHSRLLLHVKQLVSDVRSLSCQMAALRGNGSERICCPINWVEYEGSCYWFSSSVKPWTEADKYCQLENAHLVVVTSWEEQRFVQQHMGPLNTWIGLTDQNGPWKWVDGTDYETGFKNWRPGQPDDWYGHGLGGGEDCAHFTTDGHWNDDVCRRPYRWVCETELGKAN
Briefly: FACS on transfected HEK 293 cells or membrane preps on beads; Y = signal at least 2x irrelevant IgG. Summed up: as §1

The target in the next experiment is T4, Human ASGR-2 (human, UniProt P07307 1-311).
T4 construct: Expressed on HEK 293 cells; cDNA GenBank NM_080913.3; also called huASGR-2; hASGR-2
T4 sequence: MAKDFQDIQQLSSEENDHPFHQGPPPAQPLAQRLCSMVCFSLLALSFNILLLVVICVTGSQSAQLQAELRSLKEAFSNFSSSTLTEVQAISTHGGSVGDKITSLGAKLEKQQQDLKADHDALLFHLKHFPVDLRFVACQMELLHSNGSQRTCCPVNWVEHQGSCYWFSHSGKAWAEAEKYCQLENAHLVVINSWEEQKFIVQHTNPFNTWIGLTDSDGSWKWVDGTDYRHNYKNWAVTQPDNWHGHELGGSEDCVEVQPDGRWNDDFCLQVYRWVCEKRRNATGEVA
The experiment in a line: FACS on transfected HEK 293 cells; Y = signal at least 2x irrelevant IgG. How it is done: Human ASGR-1-specific, ligand competing antibody samples were tested for binding to ASGR-1 from other species (cynomologus monkey ASGR-1, mouse ASGR-1, rat ASGR-1, dog ASGR-1, and pig ASGR-1) as well as to human ASGR-2 in FACS binding assays at normalized antibody concentrations. For cell-based assays, HEK 293 cells expressing the appropriate antigen of interest were mixed with antibody sample or controls, incubated for 1 hour at 4° C., and then washed twice. Cells with bound antibody were then incubated with Alexa Fluor® 647 IgG Fc fragment-specific detection antibody and 7-AAD viability stain for 15 minutes at 4° C., washed once and resuspended in FACS buffer. Samples were analyzed using a BD Accuri™ Flow Cytometer and an Intellicyt HyperCyt Autosampler. As a negative control, supernatants and controls were also screened against HEK 293 cells transfected with empty parental vector. […] For membrane-prep binding assays, ASGR-1 species specific membrane preps were used to coat LumAvidin® microspheres (beads) and tested for binding to selected hybridoma supernatants or controls. Briefly, ASGR-1 species specific membrane preps were incubated with streptavidin-coated LumAvidin® beads for 45 minutes in the dark at room temperature and washed twice. Beads were resuspeneded in FACS buffer containing Stabilguard®. […] Samples were analyzed using an Intellicyt iQue™ Screener Platform. […]

B1: 6G7 (antibody, V domains shown)
VH: QVQLVESGGGVVQPGRSLRLSCAASGFTFSSYGMHWVRQTPGKGLEWVAIISYVGKNKYYADSVKGRFTISRDNSKNTLYLQMNSLRAEDTAVYYCARRGNSYGGYGMDVWGQGTTVTVSS
VL: DIQMTQSPSSRSASVGDRVTITCQASQDISNYLNWCQQKPGKALKLLIYDASTLETGVPSRFSGSGSGTDFTFTISSVQPEDIATYYCQQYDNVPITFGQGTRLEIK
notes: Tested as hybridoma supernatant at normalized concentration
Consider B1, for which the binding result is “no binding” in the experiment with Pig ASGR-1, “no binding” in the experiment with Dog ASGR-1, “binds” with Rat ASGR-1 and “binds” with Human ASGR-2.
